# B1: SLAM family member 7 (Mus musculus), Q8BHK6 (parent)
# chain: MARFSTYIIFTSVLCQLTVTAASGTLKKVAGALDGSVTFTLNITEIKVDYVVWTFNTFFLAMVKKDGVTSQSSNKERIVFPDGLYSMKLSQLKKNDSGAYRAEIYSTSSQASLIQEYVLHVYKHLSRPKVTIDRQSNKNGTCVINLTCSTDQDGENVTYSWKAVGQGDNQFHDGATLSIAWRSGEKDQALTCMARNPVSNSFSTPVFPQKLCEDAATDLTSLRGILYILCFSAVLILFAVLLTIFHTTWIKKGKGCEEDKKRVDRHQEMPDLCPHLEENADYDTIPYTEKRRPEEDAPNTFYSTVQIPKVVKSPSSLPAKPLVPRSLSFENVI
# partner: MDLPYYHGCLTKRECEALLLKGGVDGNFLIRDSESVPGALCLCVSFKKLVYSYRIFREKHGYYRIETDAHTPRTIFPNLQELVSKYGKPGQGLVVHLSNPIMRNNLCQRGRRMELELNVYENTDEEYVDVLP
# Variants of: B1
# Conditions: with sh21b_mouse Sh2d1b
row,Variant,effect of a mutation on the interaction
1,MARFSTYIIFTSVLCQLTVTAASGTLKKVAGALDGSVTFTLNITEIKVDYVVWTFNTFFLAMVKKDGVTSQSSNKERIVFPDGLYSMKLSQLKKNDSGAYRAEIYSTSSQASLIQEYVLHVYKHLSRPKVTIDRQSNKNGTCVINLTCSTDQDGENVTYSWKAVGQGDNQFHDGATLSIAWRSGEKDQALTCMARNPVSNSFSTPVFPQKLCEDAATDLTSLRGILYILCFSAVLILFAVLLTIFHTTWIKKGKGCEEDKKRVDRHQEMPDLCPHLEENADYDTIPYTEKRRPEEDAPNTFFSTVQIPKVVKSPSSLPAKPLVPRSLSFENVI [Y302F],disrupting interaction
2,MARFSTYIIFTSVLCQLTVTAASGTLKKVAGALDGSVTFTLNITEIKVDYVVWTFNTFFLAMVKKDGVTSQSSNKERIVFPDGLYSMKLSQLKKNDSGAYRAEIYSTSSQASLIQEYVLHVYKHLSRPKVTIDRQSNKNGTCVINLTCSTDQDGENVTYSWKAVGQGDNQFHDGATLSIAWRSGEKDQALTCMARNPVSNSFSTPVFPQKLCEDAATDLTSLRGILYILCFSAVLILFAVLLTIFHTTWIKKGKGCEEDKKRVDRHQEMPDLCPHLEENADFDTIPFTEKRRPEEDAPNTFFSTVQIPKVVKSPSSLPAKPLVPRSLSFENVI [Y282F;Y287F;Y302F],disrupting interaction

# — IntAct's records for PubMed 19151721
